The values below come from IntAct's records for PubMed 25910212.

To fix the notation:
B1: H/ACA ribonucleoprotein complex subunit 3 (Homo sapiens), Q9NPE3 (parent)
chain: MFLQYYLNEQGDRVYTLKKFDPMGQQTCSAHPARFSPDDKYSRHRITIKKRFKVLMTQQPRPVL
partner: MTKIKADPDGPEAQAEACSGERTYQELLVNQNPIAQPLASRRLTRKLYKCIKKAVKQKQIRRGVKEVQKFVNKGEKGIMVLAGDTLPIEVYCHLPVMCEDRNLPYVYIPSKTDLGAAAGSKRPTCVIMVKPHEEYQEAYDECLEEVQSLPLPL
B2: N-chimaerin (Homo sapiens), P15882 (parent)
chain: MALTLFDTDEYRPPVWKSYLYQLQQEAPHPRRITCTCEVENRPKYYGREFHGMISREAADQLLIVAEGSYLIRESQRQPGTYTLALRFGSQTRNFRLYYDGKHFVGEKRFESIHDLVTDGLITLYIETKAAEYIAKMTINPIYEHVGYTTLNREPAYKKHMPVLKETHDERDSTGQDGVSEKRLTSLVRRATLKENEQIPKYEKIHNFKVHTFRGPHWCEYCANFMWGLIAQGVKCADCGLNVHKQCSKMVPNDCKPDLKHVKKVYSCDLTTLVKAHTTKRPMVVDMCIREIESRGLNSEGLYRVSGFSDLIEDVKMAFDRDGEKADISVNMYEDINIITGALKLYFRDLPIPLITYDAYPKFIESAKIMDPDEQLETLHEALKLLPPAHCETLRYLMAHLKRVTLHEKENLMNAENLGIVFGPTLMRSPELDAMAALNDIRYQRLVVELLIKNEDILF
B3: Forkhead box protein P3 (Homo sapiens), Q9BZS1 (parent)
chain: MPNPRPGKPSAPSLALGPSPGASPSWRAAPKASDLLGARGPGGTFQGRDLRGGAHASSSSLNPMPPSQLQLPTLPLVMVAPSGARLGPLPHLQALLQDRPHFMHQLSTVDAHARTPVLQVHPLESPAMISLTPPTTATGVFSLKARPGLPPGINVASLEWVSREPALLCTFPNPSAPRKDSTLSAVPQSSYPLLANGVCKWPGCEKVFEEPEDFLKHCQADHLLDEKGRAQCLLQREMVQSLEQQLVLEKEKLSAMQAHLAGKMALTKASSVASSDKGSCCIVAAGSQGPVVPAWSGPREAPDSLFAVRRHLWGSHGNSTFPEFLHNMDYFKFHNMRPPFTYATLIRWAILEAPEKQRTLNEIYHWFTRMFAFFRNHPATWKNAIRHNLSLHKCFVRVESEKGAVWTVDELEFRKKRSQRPSRCSNPTPGP
B4: PiggyBac transposable element-derived protein 1 (Homo sapiens), Q96JS3 (parent)
chain: MYEALPGPAPENEDGLVKVKEEDPTWEQVCNSQEGSSHTQEICRLRFRHFCYQEAHGPQEALAQLRELCHQWLRPEMHTKEQIMELLVLEQFLTILPKELQPCVKTYPLESGEEAVTVLENLETGSGDTGQQASVYIQGQDMHPMVAEYQGVSLECQSLQLLPGITTLKCEPPQRPQGNPQEVSGPVPHGSAHLQEKNPRDKAVVPVFNPVRSQTLVKTEEETAQAVAAEKWSHLSLTRRNLCGNSAQETVMSLSPMTEEIVTKDRLFKAKQETSEEMEQSGEASGKPNRECAPQIPCSTPIATERTVAHLNTLKDRHPGDLWARMHISSLEYAAGDITRKGRKKDKARVSELLQGLSFSGDSDVEKDNEPEIQPAQKKLKVSCFPEKSWTKRDIKPNFPSWSALDSGLLNLKSEKLNPVELFELFFDDETFNLIVNETNNYASQKNVSLEVTVQEMRCVFGVLLLSGFMRHPRREMYWEVSDTDQNLVRDAIRRDRFELIFSNLHFADNGHLDQKDKFTKLRPLIKQMNKNFLLYAPLEEYYCFDKSMCECFDSDQFLNGKPIRIGYKIWCGTTTQGYLVWFEPYQEESTMKVDEDPDLGLGGNLVMNFADVLLERGQYPYHLCFDSFFTSVKLLSALKKKGVRATGTIRENRTEKCPLMNVEHMKKMKRGYFDFRIEENNEIILCRWYGDGIISLCSNAVGIEPVNEVSCCDADNEEIPQISQPSIVKVYDECKEGVAKMDQIISKYRVRIRSKKWYSILVSYMIDVAMNNAWQLHRACNPGASLDPLDFRRFVAHFYLEHNAHLSD
partner: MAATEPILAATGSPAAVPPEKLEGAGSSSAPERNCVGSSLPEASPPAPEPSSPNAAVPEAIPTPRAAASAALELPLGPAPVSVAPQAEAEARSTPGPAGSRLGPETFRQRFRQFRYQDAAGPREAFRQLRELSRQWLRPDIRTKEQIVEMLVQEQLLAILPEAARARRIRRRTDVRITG
B5: Retinol dehydrogenase 12 (Homo sapiens), Q96NR8 (parent)
chain: MLVTLGLLTSFFSFLYMVAPSIRKFFAGGVCRTNVQLPGKVVVITGANTGIGKETARELASRGARVYIACRDVLKGESAASEIRVDTKNSQVLVRKLDLSDTKSIRAFAEGFLAEEKQLHILINNAGVMMCPYSKTADGFETHLGVNHLGHFLLTYLLLERLKVSAPARVVNVSSVAHHIGKIPFHDLQSEKRYSRGFAYCHSKLANVLFTRELAKRLQGTGVTTYAVHPGVVRSELVRHSSLLCLLWRLFSPFVKTAREGAQTSLHCALAEGLEPLSGKYFSDCKRTWVSPRARNNKTAERLWNVSCELLGIRWE

One test covers variants of B1. Conditions: with nhp2_human NHP2, Q9NX24.
As for MFLQYYLNEQGDRVYTLKKFDPMGQQTCSAHPAWFSPDDKYSRHRITIKKRFKVLMTQQPRPVL, the “effect of a mutation on the interaction” value is listed as “with no effect”.

In another test the parent is B2. To be noted: with nck2_human NCK2, O43639.
nck2_human NCK2, O43639, sequence (O43639 whole entry): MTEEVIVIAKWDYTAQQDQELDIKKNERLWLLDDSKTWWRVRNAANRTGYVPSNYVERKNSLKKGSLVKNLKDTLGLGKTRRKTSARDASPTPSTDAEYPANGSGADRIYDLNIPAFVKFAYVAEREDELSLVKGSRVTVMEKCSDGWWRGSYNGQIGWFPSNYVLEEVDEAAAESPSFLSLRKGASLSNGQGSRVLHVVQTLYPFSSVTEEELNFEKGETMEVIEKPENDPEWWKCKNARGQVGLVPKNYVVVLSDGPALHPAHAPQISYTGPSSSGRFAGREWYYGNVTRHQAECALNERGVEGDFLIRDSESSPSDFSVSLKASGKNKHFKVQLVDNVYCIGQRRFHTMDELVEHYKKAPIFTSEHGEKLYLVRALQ
MALTLFDTDEYRPPVWKSYFYQLQQEAPHPRRITCTCEVENRPKYYGREFHGMISREAADQLLIVAEGSYLIRESQRQPGTYTLALRFGSQTRNFRLYYDGKHFVGEKRFESIHDLVTDGLITLYIETKAAEYIAKMTINPIYEHVGYTTLNREPAYKKHMPVLKETHDERDSTGQDGVSEKRLTSLVRRATLKENEQIPKYEKIHNFKVHTFRGPHWCEYCANFMWGLIAQGVKCADCGLNVHKQCSKMVPNDCKPDLKHVKKVYSCDLTTLVKAHTTKRPMVVDMCIREIESRGLNSEGLYRVSGFSDLIEDVKMAFDRDGEKADISVNMYEDINIITGALKLYFRDLPIPLITYDAYPKFIESAKIMDPDEQLETLHEALKLLPPAHCETLRYLMAHLKRVTLHEKENLMNAENLGIVFGPTLMRSPELDAMAALNDIRYQRLVVELLIKNEDILF [L20F]: the “effect of a mutation on the interaction” value is recorded as “with no effect”. For the variant MALTLFDTDEYRPPVWKSYLYQLQQEAPHPRRITCTCEVENRPKYYGREFHGMISREAADQLLIVAEGSYLIRESQRQPGTYTLALRFGSQTRNFRLYYDGKHFVGEKRFESIHDLVTDGLITLYIETKAAEYIAKMTINPIYEHVGYTTLNREPAYKKHMPVLKETHDERDSTGQDGVSEKRLTSLVRRATLKENEQIPKYEKIHNFKVHTFRGPHWCEYCVNFMWGLIAQGVKCADCGLNVHKQCSKMVPNDCKPDLKHVKKVYSCDLTTLVKAHTTKRPMVVDMCIREIESRGLNSEGLYRVSGFSDLIEDVKMAFDRDGEKADISVNMYEDINIITGALKLYFRDLPIPLITYDAYPKFIESAKIMDPDEQLETLHEALKLLPPAHCETLRYLMAHLKRVTLHEKENLMNAENLGIVFGPTLMRSPELDAMAALNDIRYQRLVVELLIKNEDILF [A223V], the “effect of a mutation on the interaction” value is reported as “with no effect”. Consider MALTLFDTDEYRPPVWKSYLYQLQQEAPHPRRITCTCEVENRPKYYGREFHGMISREAADQLLIVAEGSYLIRESQRQPGTYTLALRFGSQTRNFRLYYDGKHFVGEKRFESIHDLVTDGLITLYIETKAAEYIAKMTINPIYEHVGYTTLNREPAYKKHMPVLKETHDERDSTGQDGVSEKRLTSLVRRATLKENEQIPKYEKIHNFKVHTFRGPHWCEYCANFMWSLIAQGVKCADCGLNVHKQCSKMVPNDCKPDLKHVKKVYSCDLTTLVKAHTTKRPMVVDMCIREIESRGLNSEGLYRVSGFSDLIEDVKMAFDRDGEKADISVNMYEDINIITGALKLYFRDLPIPLITYDAYPKFIESAKIMDPDEQLETLHEALKLLPPAHCETLRYLMAHLKRVTLHEKENLMNAENLGIVFGPTLMRSPELDAMAALNDIRYQRLVVELLIKNEDILF [G228S], for which the “effect of a mutation on the interaction” value is “with no effect”. In the case of MALTLFDTDEYRPPVWKSYLYQLQQEAPHPRRITCTCEVENRPKYYGREFHGMISREAADQLLIVAEGSYLIRESQRQPGTYTLALRFGSQTRNFRLYYDGKHFVGEKRFESIHDLVTDGLITLYIETKAAEYIAKMTINPIYEHVGYTTLNREPAYKKHMPVLKETHDERDSTGQDGVSEKRLTSLVRRATLKENEQIPKYEKIHNFKVHTFRGPHWCEYCANFMWGLIAQGVKCADCGLNVHKQCSKMVQNDCKPDLKHVKKVYSCDLTTLVKAHTTKRPMVVDMCIREIESRGLNSEGLYRVSGFSDLIEDVKMAFDRDGEKADISVNMYEDINIITGALKLYFRDLPIPLITYDAYPKFIESAKIMDPDEQLETLHEALKLLPPAHCETLRYLMAHLKRVTLHEKENLMNAENLGIVFGPTLMRSPELDAMAALNDIRYQRLVVELLIKNEDILF [P252Q], the “effect of a mutation on the interaction” value is listed as “with no effect”.

The variants in a further test derive from B3. Conditions: with RBPMS.
Take MPNPRPGKPSAPSLALGPSPGASPSWRAAPKASDLLGARGPGGTFQGRDLRGGAHASSSSLNPMPPSQLQLPTLPLVMVAPSGARLGPLPHLQALLQDRPHFMHQLSTVDAHARTPVLQVHPLESPAMISLTPPTTATGVFSLKARPGLPPGINVASLEWVSREPALLCTFPNPSAPRKDSTLSAVPQSSYPLLANGVCKWPGCEKVFEEPEDFLKHCQADHLLDEKGRAQCLLQREMVQSLEQQLVLEKEKLSAMQAHLAGKMALTKASSVASSDKGSCCIVAAGSQGPVVPAWSGPREAPDSLFAVRRHLWGSHGNSTFPEFLHNMDYFKFHNMRPPFTYATLIRWAILEAPEKQRTLNEVYHWFTRMFAFFRNHPATWKNAIRHNLSLHKCFVRVESEKGAVWTVDELEFRKKRSQRPSRCSNPTPGP [I363V]: the “effect of a mutation on the interaction” value was “disrupting interaction strength”.

The variants in the next test derive from B3. To be noted: with pr20e_human PRR20E.
As to MPNPRPGKPSAPSLALGPSPGASPSWRAAPKASDLLGARGPGGTFQGRDLRGGAHASSSSLNPMPPSQLQLPTLPLVMVAPSGARLGPLPHLQALLQDRPHFMHQLSTVDAHARTPVLQVHPLESPAMISLTPPTTATGVFSLKARPGLPPGINVASLEWVSREPALLCTFPNPSAPRKDSTLSAVPQSSYPLLANGVCKWPGCEKVFEEPEDFLKHCQADHLLDEKGRAQCLLQREMVQSLEQQLVLEKEKLSAMQAHLAGKMALTKASSVASSDKGSCCIVAAGSQGPVVPAWSGPREAPDSLFAVRRHLWGSHGNSTFPEFLHNMDYFKFHNMRPPFTYATLIRWAILEAPEKQRTLNEVYHWFTRMFAFFRNHPATWKNAIRHNLSLHKCFVRVESEKGAVWTVDELEFRKKRSQRPSRCSNPTPGP [I363V], the “effect of a mutation on the interaction” value is reported as “disrupting interaction strength”.

The next test covers variants of B4. To be noted: with scnd1_human SCAND1, P57086.
Consider P256L, for which the “effect of a mutation on the interaction” value is “with no effect”.

With I678V, the “effect of a mutation on the interaction” value is “with no effect”. Regarding G244E, the “effect of a mutation on the interaction” value was “with no effect”. On the same count and under the same terms, the entry for H806D is “with no effect”; for Q248E it is “with no effect”.

Another test covers variants of B5. Conditions: with RBPMS.
For the variant MLVTLGLLTSFFSFLYMVAPSIRKFFAGGVCRTNVQLPGKVVVITGANMGIGKETARELASRGARVYIACRDVLKGESAASEIRVDTKNSQVLVRKLDLSDTKSIRAFAEGFLAEEKQLHILINNAGVMMCPYSKTADGFETHLGVNHLGHFLLTYLLLERLKVSAPARVVNVSSVAHHIGKIPFHDLQSEKRYSRGFAYCHSKLANVLFTRELAKRLQGTGVTTYAVHPGVVRSELVRHSSLLCLLWRLFSPFVKTAREGAQTSLHCALAEGLEPLSGKYFSDCKRTWVSPRARNNKTAERLWNVSCELLGIRWE [T49M], the “effect of a mutation on the interaction” value is “with no effect”.
